Assays:
Details in all cases: both partners purified
Nanobody-161 IgG1 Q102A = target: T1, Nanobody-161 IgG1 Q102A; experiment: BLI; Gator system, 25 °C; 30 nM Nanobody-161 IgG1 or mutant immobilised on Protein A biosensors for 120 s; 4800 nM-300 nM TNFR2-His in Q Buffer (PBS, 0.02% Tween 20, 0.2% BSA); association 120 s, dissociation 180 s; global 1:1 Langmuir fit
T1 construct: as the chain of m1 with the stated change

Nanobody-161 IgG1 R108A = target: T2, Nanobody-161 IgG1 R108A; experiment: as above
T2 construct: as the chain of m1 with the stated change

Nanobody-161 IgG1 = target: T3, Nanobody-161 IgG1; experiment: as above
T3 construct: CDR1 26-35, CDR2 50-59, CDR3 99-110); 78 kDa, called bivalent in the discussion; The methods nonetheless speak of heavy-chain and light-chain plasmids; source: ExpiCHO, transfected, purified from conditioned medium (MabSelect SuRe LX)

Nanobody-161 IgG1 F107G = target: T4, Nanobody-161 IgG1 F107G; experiment: as above
T4 construct: as the chain of m1 with the stated change

Nanobody-161 IgG1 R29A = target: T5, Nanobody-161 IgG1 R29A; experiment: as above
T5 construct: as the chain of m1 with the stated change

Nanobody-161 IgG1 R53A = target: T6, Nanobody-161 IgG1 R53A; experiment: as above
T6 construct: as the chain of m1 with the stated change

TNFR2-His protein = target: T7, TNFR2-His protein (Homo sapiens, UniProt P20333); experiment: BLI; 30 nM Nanobody-161 IgG1 or mutant immobilised on Protein A biosensors (Gator); 4800 nM-300 nM TNFR2-His in Q Buffer (PBS, 0.02% Tween 20, 0.2% BSA); 25 °C; association 120 s, dissociation 180 s; global 1:1 Langmuir fit
T7 construct: Tumor necrosis factor receptor 2 (TNFR2), human; The BLI methods say only 'TNFR2-His protein'; It may be the E. coli ectodomain (residues 33-205, purified on a nickel column) or a bought protein (Sino Biological 10417-H03H); neither the source nor the species is named for this experiment; also called histidine-tagged TNFR2
T7 sequence (P20333 23-461): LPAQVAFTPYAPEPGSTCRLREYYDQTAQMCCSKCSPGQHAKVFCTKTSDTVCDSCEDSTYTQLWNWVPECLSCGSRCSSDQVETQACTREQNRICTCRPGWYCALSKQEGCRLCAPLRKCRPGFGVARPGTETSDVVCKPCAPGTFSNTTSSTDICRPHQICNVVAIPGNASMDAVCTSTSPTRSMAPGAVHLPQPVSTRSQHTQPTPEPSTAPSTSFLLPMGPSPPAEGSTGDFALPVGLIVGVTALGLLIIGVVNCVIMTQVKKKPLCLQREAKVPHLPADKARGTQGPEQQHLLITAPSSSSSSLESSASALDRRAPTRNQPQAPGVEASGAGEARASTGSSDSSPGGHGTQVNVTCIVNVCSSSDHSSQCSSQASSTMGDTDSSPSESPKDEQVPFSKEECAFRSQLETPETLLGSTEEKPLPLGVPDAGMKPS

Binder	binding result (Nanobody-161 IgG1 Q102A)	binding result (Nanobody-161 IgG1 R108A)	binding result (Nanobody-161 IgG1)	binding result (Nanobody-161 IgG1 F107G)	binding result (Nanobody-161 IgG1 R29A)	binding result (Nanobody-161 IgG1 R53A)	Kd (TNFR2-His protein)	koff (TNFR2-His protein)	kon (TNFR2-His protein)
TNFR2-His protein (receptor, UniProt P20333 23-461, looked up, TNFR2-His protein used as analyte in BLI; also called histidine-tagged TNFR2) APEPGSTCRLREYYDQTAQMCCSKCSPGQHAKVFCTKTSDTVCDSCEDSTYTQLWNWVPECLSCGSRCSSDQVETQACTREQNRICTCRPGWYCALSKQEGCRLCAPLRKCRPGFGVARPGTETSDVVCKPCAPGTFSNTTSSTDICRPHQICNVVAIPGNASMDAVCTSTSP	binds	binds	binds	binds	binds	binds	–	–	–
Nanobody-161 IgG1 (VHH, also called WT; source: ExpiCHO, purified (MabSelect SuRe LX)) VHH: EVQLVESGGGLVQPGGSLRLSCAASGSIRFINDMGWYRQAPGKGLELVAAIGRGGGSTNYADSVKGRFTISRDNAKNTLYLQMNSLRAEDTAVYYCHAEISQLGYAFRDYWGQGTLVTVSS	–	–	–	–	–	–	81.5 nM	0.000276 s⁻¹	3390 M⁻¹ s⁻¹
Nanobody-161 IgG1 F30G (VHH, as the VHH of Wm1, with the stated change) VHH: EVQLVESGGGLVQPGGSLRLSCAASGSIRGINDMGWYRQAPGKGLELVAAIGRGGGSTNYADSVKGRFTISRDNAKNTLYLQMNSLRAEDTAVYYCHAEISQLGYAFRDYWGQGTLVTVSS	–	–	–	–	–	–	3780 nM	0.0126 s⁻¹	3340 M⁻¹ s⁻¹
Nanobody-161 IgG1 L103G (VHH, as the VHH of Wm1, with the stated change) VHH: EVQLVESGGGLVQPGGSLRLSCAASGSIRFINDMGWYRQAPGKGLELVAAIGRGGGSTNYADSVKGRFTISRDNAKNTLYLQMNSLRAEDTAVYYCHAEISQGGYAFRDYWGQGTLVTVSS	–	–	–	–	–	–	976 nM	0.00382 s⁻¹	3920 M⁻¹ s⁻¹
Nanobody-161 IgG1 S101A (VHH, as the VHH of Wm1, with the stated change) VHH: EVQLVESGGGLVQPGGSLRLSCAASGSIRFINDMGWYRQAPGKGLELVAAIGRGGGSTNYADSVKGRFTISRDNAKNTLYLQMNSLRAEDTAVYYCHAEIAQLGYAFRDYWGQGTLVTVSS	–	–	–	–	–	–	1720 nM	0.00926 s⁻¹	5370 M⁻¹ s⁻¹
Nanobody-161 IgG1 R108A (VHH, as the VHH of Wm1, with the stated change) VHH: EVQLVESGGGLVQPGGSLRLSCAASGSIRFINDMGWYRQAPGKGLELVAAIGRGGGSTNYADSVKGRFTISRDNAKNTLYLQMNSLRAEDTAVYYCHAEISQLGYAFADYWGQGTLVTVSS	–	–	–	–	–	–	186 nM	0.000877 s⁻¹	4730 M⁻¹ s⁻¹
Nanobody-161 IgG1 R53A (VHH, as the VHH of Wm1, with the stated change) VHH: EVQLVESGGGLVQPGGSLRLSCAASGSIRFINDMGWYRQAPGKGLELVAAIGAGGGSTNYADSVKGRFTISRDNAKNTLYLQMNSLRAEDTAVYYCHAEISQLGYAFRDYWGQGTLVTVSS	–	–	–	–	–	–	79.5 nM	0.000321 s⁻¹	4030 M⁻¹ s⁻¹
Nanobody-161 IgG1 R29A (VHH, as the VHH of Wm1, with the stated change) VHH: EVQLVESGGGLVQPGGSLRLSCAASGSIAFINDMGWYRQAPGKGLELVAAIGRGGGSTNYADSVKGRFTISRDNAKNTLYLQMNSLRAEDTAVYYCHAEISQLGYAFRDYWGQGTLVTVSS	–	–	–	–	–	–	631 nM	0.002 s⁻¹	3170 M⁻¹ s⁻¹
Nanobody-161 IgG1 Q102A (VHH, as the VHH of Wm1, with the stated change) VHH: EVQLVESGGGLVQPGGSLRLSCAASGSIRFINDMGWYRQAPGKGLELVAAIGRGGGSTNYADSVKGRFTISRDNAKNTLYLQMNSLRAEDTAVYYCHAEISALGYAFRDYWGQGTLVTVSS	–	–	–	–	–	–	212 nM	0.000699 s⁻¹	3290 M⁻¹ s⁻¹
